From patent US20170343556A1 (VENTANA MEDICAL SYSTEMS, published 2017)

Molecular target: T1, human PD-L1 (Programmed death ligand-1) (human, UniProt Q9NZQ7 19-290)
T1 construct: whole, on cells; Endogenous PD-L1 in fixed tissue sections, detected by immunohistochemistry; No recombinant construct was used; also called B7-H1; PDCD1L1
Test: immunohistochemistry on FFPE tissue sections, OptiView DAB detection
Experimental: VENTANA PD-L1 (SP263) is a rabbit monoclonal primary antibody which binds to PD-L1 in paraffin-embedded tissue sections. The specific antibody can be localized using a haptenated secondary antibody followed by a multimer anti-hapten-HRP conjugate (OptiView DAB IHC Detection Kit, Cat. No. 760-700). The specific antibody-enzyme complex is then visualized with a precipitating enzyme reaction product. Each step is incubated for a precise time and temperature. At the end of each incubation step, the VENTANA BENCHMARK automated slide stainer washes the sections to stop the reaction and to remove unbound material that would hinder the desired reaction in subsequent steps. It also applies LCS (Cat. No. 650-210/Cat. No. 650-010), which minimizes evaporation of the aqueous reagents from the specimen slide. In addition to staining with VENTANA PD-L1 (SP263), a second slide is stained with a rabbit monoclonal negative control Ig (Cat. No. 790-4795) to assess background staining. [0113] IB. Specimen Preparation

T1 sequence (Q9NZQ7 19-290): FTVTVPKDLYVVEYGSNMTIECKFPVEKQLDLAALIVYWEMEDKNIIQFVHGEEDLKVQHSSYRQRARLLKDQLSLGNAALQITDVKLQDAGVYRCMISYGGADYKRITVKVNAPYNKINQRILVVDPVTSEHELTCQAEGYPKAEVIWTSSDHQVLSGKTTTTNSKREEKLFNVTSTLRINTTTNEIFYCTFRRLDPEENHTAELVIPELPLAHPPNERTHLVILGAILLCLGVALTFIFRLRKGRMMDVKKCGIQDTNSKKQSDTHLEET

B1: VENTANA PD-L1 (SP263) Rabbit Monoclonal Antibody (antibody, V domains shown)
VH: QSLEESGGRLVTPGTPLTLTCTASGFSLSNHAISWVRQAPGKGLEWIGTINSDTHTYYATWPKGRFTISKTSSTTVDLKMTSPTTEDTATYFCARRIFSSSNIWGPGTLVTVSS
VL: AIVMTQTSSPVSAVVGGTVAINCQASQSIYNNNWLSWFQQKPGQPPKLLIYLASTLASGVPSRFKGSGSGTQFTLTISDVVCDDAATYYCIGGESSNNDGIAFGGGTEVVVK
notes: Rabbit monoclonal primary antibody with a kappa light chain; also called SP263 antibody; anti-PD-L1
Q: Does B1 bind?
A: binds
